In patent US5861155:
Residue numbers refer to the chain shown, from its start. Several values for one entry are separate records, joined by “and”; a condition that tells them apart may be missing. Equal entries are not always repeated. Each block holds one binder with its values, some of them ahead of it.

Columns and labels:
[1] = target: human T cell receptor with β chain variable region Vβ 5.2, on HPB-ALL cells (human); assay: 4H11-FITC competition assay, competitor label 4H11-FITC (cells not stated in the example)
[2] = target: human T cell receptor with β chain variable region Vβ 5.2, on HPB-ALL cells (human); assay: flow cytometry on HPB cells, TM27 purified from CHO cells
[3] = target: human T cell receptor with β chain variable region Vβ 5.2, on HPB-ALL cells (human); assay: flow cytometry on HPB cells, TM27 purified from NSO cells

value in the 4H11-FITC competition assay, fold against TM23 [1]: < 3 fold
mean channel fluorescence [2]: 283 and 322
mean channel fluorescence [3]: 507
B1: TM27 (antibody, V domains shown)
VH: QVQLQESGPGLVRPSQTLSLTCTVSGFSLTAYGVNWVRQPPGRGLEWLGMIWGDGNTDYNSALKSRVTMLKDTSKNQFSLRLSSVTAADTAVYYCARDRVTATLYAMDYWGQGSLVTVSS
VL: DIQMTQSPSSLSASVGDRVTITCSASQGISNYLNWYQQTPGKAPKLLIYYTSSLHSGVPSRFSGSGSGTDYTFTISSLQPEDIATYYCQQYSKLPRTFGQGTKLQIT

value in the 4H11-FITC competition assay, fold against TM23 [1]: < 3 fold
B2: TM27I (antibody, V domains shown)
VH: B1 VH with L48I
VL: B1 VL
